Laboratory results published in PMC11206591, “Novel Ultrasound-Responsive Amyloid Formulation” (Pharmaceuticals, 2024).

Target: the molecule itself
Assay: thioflavin T (ThT) fluorescence; 200 µM peptide in 100 mM ammonium acetate buffer pH 7, 37 °C in a thermomixer, read at 24 h and 48 h; with and without Pluronic F127 0.01% and Dox; ThT 50 µM in 20 mM Tris pH 8, 440/482 nm

B1: Receptor-interacting protein RIP 3 peptide NIYNCSGVQVGD (peptide)
peptide: NIYNCSGVQVGD
notes: The amyloids were formed from the peptide alone and also with Pluronic F127 (0.01% w/v) and/or Doxorubicin; also called 12-amino-acid peptide from the amyloidogenic region of RIP3; source: synthetic peptide, custom-synthesized from Genscript
binding result: binds
